Biological target: T1, Zwf sub-unit (Zwf protein) of glucose 6-phosphate dehydrogenase from Corynebacterium glutamicum ATCC13032 (Corynebacterium glutamicum ATCC13032)
T1 construct: also called Zwf gene product; 60 kDa protein
T1 chain: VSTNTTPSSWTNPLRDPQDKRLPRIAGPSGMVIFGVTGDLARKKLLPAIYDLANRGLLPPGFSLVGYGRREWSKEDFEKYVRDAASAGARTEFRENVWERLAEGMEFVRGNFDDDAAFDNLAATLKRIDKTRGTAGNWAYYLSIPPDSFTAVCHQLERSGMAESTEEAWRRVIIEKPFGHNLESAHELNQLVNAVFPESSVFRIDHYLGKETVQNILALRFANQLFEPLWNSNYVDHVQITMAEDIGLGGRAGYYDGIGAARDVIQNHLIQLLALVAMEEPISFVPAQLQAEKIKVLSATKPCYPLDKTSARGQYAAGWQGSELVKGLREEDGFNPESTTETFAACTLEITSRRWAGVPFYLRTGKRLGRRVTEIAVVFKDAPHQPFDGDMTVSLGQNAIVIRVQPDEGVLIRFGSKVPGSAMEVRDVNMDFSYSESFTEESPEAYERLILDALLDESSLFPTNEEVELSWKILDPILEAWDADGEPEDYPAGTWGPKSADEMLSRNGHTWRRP
Test: co-purification over DEAE, Red-Sepharose and 2'5'-ADP-sepharose and gel filtration (Superdex G200pg); SDS-PAGE

B1: OpcA sub-unit (OpcA protein) of glucose 6-phosphate dehydrogenase from Corynebacterium glutamicum ATCC13032 (enzyme)
chain: MIFELPDTTTQQISKTLTRLRESGTQVTTGRVLTLIVVTDSESDVAAVTESTNEASREHPSRVIILVVGDKTAENKVDAEVRIGGDAGASEMIIMHLNGPVADKLQYVVTPLLLPDTPIVAWWPGESPKNPSQDPIGRIAQRRITDALYDRDDALEDRVENYHPGDTDMTWARLTQWRGLVASSLDHPPHSEITSVRLTGASGSTSVDLAAGWLARRLKVPVIREVTDAPTVPTDEFGTPLLAIQRLEIVRTTGSIIITIYDAHTLQVEMPESGNAPSLVAIGRRSESDCLSEELRHMDPDLGYQHALSGLSSVKLETV
notes: also called OpcA gene product; 30 kDa protein
Q: Does B1 bind?
A: binds
